For 1 substance, stoichiometry N (coat proteins) results are on record in article PMC7027807.

The target in this test is CP-His-CP MS2 dimer (bacteriophage MS2). Description: cryo-EM structure; large particles (~330 Å) of the same CP-His-CP sample; icosahedral T = 4 reconstruction at 6 Å, x100k and x150k datasets together; coat protein dimers of PDB 5TC1 fitted as rigid bodies.

CP-His-CP MS2 dimer displayed a stoichiometry N (coat proteins) of 240.
